Where two headings read alike, the source gives them in different places.
Test system: SARS-CoV-2

B1: pegylated interferon lambda-1a (protein)
chain: MKPTTTGKGCHIGRFKSLSPQELASFKKARDALEESLKLKNWSCSSPVFPGNWDLRLLQVRERPVALEAELALTLKVLEAAAGPALEDVLDQPLHTLHHILSQLQACIQPQPTAGPRPRGRLHHWLHRLQEAPKKESAGCLEASVTFNLFRLLTRDLKYVADGNLSLRTSTHPEST
modifications: PEG
notes: 180 mcg subcutaneous injection
For B1, the “risk reduction by dominant variant” value (August 2021 to December 2021, Delta predominant) was 46%, the “risk reduction by dominant variant” value (December 2021 to February 2022, Omicron dominant) was 83% and the “# events (variant analysis)” value (Full Study, June 2021-February 2022, N 916) was 916 (25). The “risk reduction by dominant variant” value (June 2021 to August 2021, Gamma predominant) was 25%, the “HR, all-cause mortality or hospitalization due to COVID-19, Time-to-Event analysis” value (human, in vivo) was 0.00 and the “RR, all-cause mortality or hospitalization due to COVID-19” value (human, in vivo) was 0.14. The “estimated effect across variants” value (human, in vivo) was “beneficial across all variants” and the “efficacy across SARS-CoV-2 variants” value (viral sequencing on all patients) was “pan-variant efficacy in all variants tested, including omicron”.
